Test results reported in publication PMC7537385.

Molecular target: Exoc7-sfGFP (mouse, endogenously tagged) (mouse (endogenous in normal murine mammary gland cells)) (UniProt O35250)
Assay: co-IP

Chain of UniProt O35250 (O35250 whole entry): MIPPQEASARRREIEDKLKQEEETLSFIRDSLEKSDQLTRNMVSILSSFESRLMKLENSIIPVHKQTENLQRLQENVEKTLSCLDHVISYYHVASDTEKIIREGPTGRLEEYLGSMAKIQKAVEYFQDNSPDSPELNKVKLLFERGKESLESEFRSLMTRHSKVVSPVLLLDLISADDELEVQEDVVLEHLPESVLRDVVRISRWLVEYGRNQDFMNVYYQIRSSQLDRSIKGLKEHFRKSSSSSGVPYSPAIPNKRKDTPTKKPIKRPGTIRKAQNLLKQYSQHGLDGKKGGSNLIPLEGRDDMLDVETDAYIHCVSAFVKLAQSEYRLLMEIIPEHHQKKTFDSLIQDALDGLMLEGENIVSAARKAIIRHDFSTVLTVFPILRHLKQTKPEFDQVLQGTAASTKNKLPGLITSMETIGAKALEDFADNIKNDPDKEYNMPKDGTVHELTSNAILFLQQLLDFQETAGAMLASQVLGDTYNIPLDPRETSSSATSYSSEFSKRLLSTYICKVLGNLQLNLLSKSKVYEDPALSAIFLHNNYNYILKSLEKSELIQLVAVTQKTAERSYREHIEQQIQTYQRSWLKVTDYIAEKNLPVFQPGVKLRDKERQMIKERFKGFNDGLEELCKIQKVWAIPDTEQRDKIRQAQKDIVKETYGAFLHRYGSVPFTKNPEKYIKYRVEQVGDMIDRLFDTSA

percent coprecipitated with Exoc7-GFP: 53%
Substance: Exoc2 truncated, ~48-kD N-terminal fragment (mouse) (domain or fragment)
